Assay results taken from US20220033501A1 (SHANGHAI PHARMAEXPLORER, published 2022).

T1: murine TIM-3 extracellular domain protein with hFc tag (mTIM-3-hFc) (mouse, UniProt Q8VIM0 29-191)
T1 construct: also called mouse TIM-3 extracellular domain protein; not shown: human IgG Fc fragment (hFc) of the pCpC vector
T1 chain: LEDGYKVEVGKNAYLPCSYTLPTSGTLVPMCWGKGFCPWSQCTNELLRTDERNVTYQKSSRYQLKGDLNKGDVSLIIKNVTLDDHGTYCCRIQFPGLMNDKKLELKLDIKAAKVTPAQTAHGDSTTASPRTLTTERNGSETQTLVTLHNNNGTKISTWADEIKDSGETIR

T2: human TIM-3 on CHOK1 stable cell line (CHOK1-hTIM-3) (human, UniProt Q8TDQ0 22-301)
T2 sequence: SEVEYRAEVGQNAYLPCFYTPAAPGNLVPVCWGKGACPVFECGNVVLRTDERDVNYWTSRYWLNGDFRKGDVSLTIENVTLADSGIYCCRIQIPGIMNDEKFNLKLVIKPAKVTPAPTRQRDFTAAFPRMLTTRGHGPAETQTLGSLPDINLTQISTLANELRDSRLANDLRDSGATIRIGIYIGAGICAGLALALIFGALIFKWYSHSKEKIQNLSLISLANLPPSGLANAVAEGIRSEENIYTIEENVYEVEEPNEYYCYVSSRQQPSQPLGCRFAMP

T3: human TIM-3 extracellular domain protein with hFc tag (hTIM-3-hFc) (human, UniProt Q8TDQ0 22-200)
T3 construct: not shown: human IgG Fc fragment (hFc) of the pCpC vector
T3 sequence: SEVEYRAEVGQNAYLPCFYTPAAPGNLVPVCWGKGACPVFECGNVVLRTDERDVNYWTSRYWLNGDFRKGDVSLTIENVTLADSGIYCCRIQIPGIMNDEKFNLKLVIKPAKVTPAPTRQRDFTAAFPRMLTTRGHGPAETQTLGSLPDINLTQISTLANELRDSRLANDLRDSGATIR

T4: monkey TIM-3 extracellular domain protein with hFc tag (cTIM-3-hFc) (monkey)
T4 construct: not shown: human IgG Fc fragment (hFc) of the pCpC vector
T4 chain: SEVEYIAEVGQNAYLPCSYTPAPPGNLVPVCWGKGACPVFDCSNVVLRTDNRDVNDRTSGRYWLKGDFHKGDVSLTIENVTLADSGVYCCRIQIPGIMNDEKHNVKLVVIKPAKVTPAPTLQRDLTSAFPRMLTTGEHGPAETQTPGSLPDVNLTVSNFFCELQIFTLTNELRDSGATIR

T5: human TIM-3 protein with hFc tag (hTIM-3-hFc protein) (human, UniProt Q8TDQ0 22-200)
T5 construct: also called immunogen 1; human TIM-3 extracellular domain protein; not shown: human IgG Fc fragment (hFc) of the pCpC vector
T5 sequence: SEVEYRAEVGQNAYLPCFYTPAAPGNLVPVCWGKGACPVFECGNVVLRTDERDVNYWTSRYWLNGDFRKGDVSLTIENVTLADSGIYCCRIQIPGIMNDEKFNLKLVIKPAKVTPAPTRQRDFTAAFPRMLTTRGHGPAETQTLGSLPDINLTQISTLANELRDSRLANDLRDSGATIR


Legend:
[1] = target: T1, murine TIM-3 extracellular domain …; experiment: ELISA, coated mouse TIM-3 ECD protein, 0.0067 nM antibody
[2] = target: T2, human TIM-3 on CHOK1 stable cell line …; experiment: FACS, CHOK1-hTIM-3 cells, 0.32 nM antibody
[3] = target: T3, human TIM-3 extracellular domain …; experiment: ELISA, coated human TIM-3 ECD protein, 0.0001 nM antibody
[4] = target: T1, murine TIM-3 extracellular domain …; experiment: ELISA, coated mouse TIM-3 ECD protein, 6.6667 nM antibody
[5] = target: T2, human TIM-3 on CHOK1 stable cell line …; experiment: FACS, CHOK1-hTIM-3 cells, 8 nM antibody
[6] = target: T4, monkey TIM-3 extracellular domain …; experiment: ELISA, coated monkey TIM-3 ECD protein, 0.0007 nM antibody
[7] = target: T5, human TIM-3 protein with hFc tag …; experiment: ELISA, coated hTIM-3-hFc; antibody 0 nM (blank)
Excerpt: The amino acid sequence 22-200 of the extracellular domain of the human TIM-3 protein described in the step of Example 1 (as shown in SEQ ID NO. 71 in the sequence listing) was cloned into a pCpC vector having a human IgG Fc fragment (hFc), and transfected into HEK293 cells. The cell culture medium was collected, and purified to obtain the human TIM-3 protein with hFc tag (herein referred to as hTIM-3-hFc protein). The amino acid sequence 22-201 of the extracellular domain of the monkey TIM-3 protein (as shown in SEQ ID NO. 72 in the sequence listing) was cloned into a pCpC vector having a human IgG Fc fragment (hFc), and transfected into HEK293 cells. The cell culture medium was collected, and purified to obtain the monkey TIM-3 protein with hFc tag (herein referred to as cTIM-3-hFc protein). […] The cell culture medium was collected, and purified to obtain the murine TIM-3 protein with hFc tag (herein referred to as mTIM-3-hFc protein). Purified human, monkey, and mouse TIM-3 extracellular domain proteins (hTIM-3-hFc, cTIM-3-hFc, and mTIM-3-hFc) were diluted with PBS to a final concentration of 1.0 μg/ml and then added to a 96-well ELISA plate with 100 μl per well. The plate was sealed with plastic film and incubated overnight at 4° C. The plate was washed 4 times with the plate washing solution (PBS+0.01% Tween20) on the next day, and added with the blocking solution (PBS+0.01% Tween20+1% BSA) and sealed at room temperature for 1-2 hours. The blocking solution was poured out. 50-100 μl of the antibody sample to be tested was added to each well. The plate was incubated at 37° C. for 1-2 hours, and washed 2-3 times with plate washing solution (PBS+0. 01% Tween20). HRP (horseradish peroxidase) labeled secondary antibody was added. The plate was incubated at 37° C. for 1-2 hours, and washed 2-3 times with plate washing solution (PBS+0. 01% Tween20). […] of TMB substrate was added to each well. After incubated at room temperature for 15-30 minutes, the plate was added with […] stop solution (1.0N HCl) to each well. An ELISA plate reader (TiterMax 384plus, Molecular Device) was used to read the A450 nm value.

OD450 [1] | Mean fluorescence intensity [2] | OD450 [3] | OD450 [4] | Mean fluorescence intensity [5] | OD450 [6] | OD450 [7] | Binder
0.23 | 90.1 | 0.08 | 0.36 | 308 | 0.14 |  | 7A4F10 fully human TIM-3 antibody (human IgG4, kappa) (antibody, V domains shown) VH: EVQLLESGGGLVQPGGSLRLSCAASGFTFRTHLISWVRQAPGKGLEWVAAITGSGGSTYYADSVKGRFIISRDNSKNTLFLQMNSLRAEDTAVYYCAKDGGSGSYDDFWGQGTLVTVSS VL: ETVLTQSPVTLSLSPGERATLSCRASQSVGSYLAWYQQKPGQAPRLLIYDASNRATGIPARFSGSGSGTDFTLTISSLEPEDFAVYYCQQRSNWPPTFGQGTKVEIK
 |  |  |  |  |  | 0.11 | 7A4F10 (TIM-3 antibody purified from hybridoma, chimeric antibody of Example 2) (antibody, V domains shown, From hybridoma of Harbour H2L2 transgenic mice: human variable regions, rat constant regions) VH: EVQLLESGGGLVQPGGSLRLSCAASGFTFRTHLISWVRQAPGKGLEWVAAITGSGGSTYYADSVKGRFIISRDNSKNTLFLQMNSLRAEDTAVYYCAKDGGSGSYDDFWGQGTLVTVSS VL: ETVLTQSPVTLSLSPGERATLSCRASQSVGSYLAWYQQKPGQAPRLLIYDASNRATGIPARFSGSGSGTDFTLTISSLEPEDFAVYYCQQRSNWPPTFGQGTKVEIK
0.22 | 73.6 | 0.08 | 0.38 | 298 | 0.15 |  | 215A8F2 fully human TIM-3 antibody (human IgG4, kappa) (antibody, V domains shown) VH: QVQLQQWGAGLLKPSETLSLTCTVYGGSFSGYYWNWIRQPPGKGLEWLGEINHSGSTNYNPSLKRRVTISVDTSKNQFSLKLSSVTAADTAVYYCARVYYYGPFDFWGQGTLVTVSS VL: not shown
 |  |  |  |  |  | 0.11 | 215A8F2 (TIM-3 antibody purified from hybridoma, chimeric antibody of Example 2) (antibody, V domains shown, From hybridoma of Harbour H2L2 transgenic mice: human variable regions, rat constant regions) VH: QVQLQQWGAGLLKPSETLSLTCTVYGGSFSGYYWNWIRQPPGKGLEWLGEINHSGSTNYNPSLKRRVTISVDTSKNQFSLKLSSVTAADTAVYYCARVYYYGPFDFWGQGTLVTVSS VL: not shown
 |  |  |  |  |  | 0.12 | 34B6D8 (TIM-3 antibody purified from hybridoma, chimeric antibody of Example 2) (antibody, V domains shown, From hybridoma of Harbour H2L2 transgenic mice: human variable regions, rat constant regions) VH: EVQLVESGGGLVQPGGSLRLSCAASGFTFSTYWMTWVRQAPGKRLEWVANIKQGGGDKYYVDSVKGRFTISTDNAKNSLYLQMNSLRAEDTAVYYCARGSNWFDPWGQGTLVTVSS VL: EIVMTQSPATLSMSPGERATLSCRASQSVYDNLAWYQQKPGQAPRLLIYGASTRATGIPARFSGSGSGTEFTLTISSLQSEDFALYYCQQYTHWPITFGQGTRLEIK
0.23 | 69.7 | 0.08 | 0.54 | 154 | 0.18 |  | 57F4E5 fully human TIM-3 antibody (human IgG4, kappa) (antibody, V domains shown) VH: EVQLVESGGGLVQPGGSLRLSCAASGFTFSSYWMSWVRQAPGKGLEWVANIKQDGSEKYYVDSVKGRFTISRDSAKNSLYLQMNSLRAEDTAMYFCARDSNFFDYWGQGTLVTVSS VL: ETVMTQSPATLSVSPGERATLSCRASQSVSSNLAWYQRKPGQAPRLLIYFSSTRATGIPARFSGSGSGTEFTLTISSLQSEDFAVYYCQQYNNWPLTFGGGTKVEIK
 |  |  |  |  |  | 0.12 | 57F4E5 (TIM-3 antibody purified from hybridoma, chimeric antibody of Example 2) (antibody, V domains shown, From hybridoma of Harbour H2L2 transgenic mice: human variable regions, rat constant regions) VH: EVQLVESGGGLVQPGGSLRLSCAASGFTFSSYWMSWVRQAPGKGLEWVANIKQDGSEKYYVDSVKGRFTISRDSAKNSLYLQMNSLRAEDTAMYFCARDSNFFDYWGQGTLVTVSS VL: ETVMTQSPATLSVSPGERATLSCRASQSVSSNLAWYQRKPGQAPRLLIYFSSTRATGIPARFSGSGSGTEFTLTISSLQSEDFAVYYCQQYNNWPLTFGGGTKVEIK
 |  |  |  |  |  | 0.11 | 18D2H2 (TIM-3 antibody purified from hybridoma, chimeric antibody of Example 2) (antibody, V domains shown, From hybridoma of Harbour H2L2 transgenic mice: human variable regions, rat constant regions) VH: EVQLVESGGDLVQPGGSLRLSCAASGFTFSTYWMTWVRQAPGRGLEWVANIKQDGSAKYYVDSVKGRFTLSRDDAKNSLYLQMNSLRAEDTAVYYCARGSNWFDYWGQGTLVTVSS VL: ETVMTQSPATLSVSPGERATLSCRANQNVYSNLAWYQQKPGQAPRLLIYDASTRATGFPARFSGSGSGTEFTLTISSLQSEDFAVYYCQQYNNWPLTFGGGTKVEIK
0.22 | 96.6 | 0.1 | 0.36 | 229 | 0.15 |  | 134H3G6 fully human TIM-3 antibody (human IgG4, kappa) (antibody, V domains shown) VH: EVQLVESGGGLVQPGGSLRLSCAASGFTFSNSWMTWVRQAPGKGLEWVANIKQAGTEKYYVDSVKGRFTISRDNAKNSLYLQMNSLRAEDTAVYYCNSGSNYFDYWGQGTLVTVSS VL: EIVMTQSPATLSVSPGERATLSCRARQNFYSNLAWYQQKPGQAPRLLIYGASTRATGIPARFSGSGSGTEFTLTISSLQSEDFAVYYCQQYNNWPLTFGGGTKVEIK
0.22 | 93.1 | 0.08 | 0.31 | 268 | 0.15 |  | 18D2H2 fully human TIM-3 antibody (human IgG4, kappa) (antibody, V domains shown) VH: EVQLVESGGDLVQPGGSLRLSCAASGFTFSTYWMTWVRQAPGRGLEWVANIKQDGSAKYYVDSVKGRFTLSRDDAKNSLYLQMNSLRAEDTAVYYCARGSNWFDYWGQGTLVTVSS VL: ETVMTQSPATLSVSPGERATLSCRANQNVYSNLAWYQQKPGQAPRLLIYDASTRATGFPARFSGSGSGTEFTLTISSLQSEDFAVYYCQQYNNWPLTFGGGTKVEIK
 |  |  |  |  |  | 0.12 | 134H3G6 (TIM-3 antibody purified from hybridoma, chimeric antibody of Example 2) (antibody, V domains shown, From hybridoma of Harbour H2L2 transgenic mice: human variable regions, rat constant regions) VH: EVQLVESGGGLVQPGGSLRLSCAASGFTFSNSWMTWVRQAPGKGLEWVANIKQAGTEKYYVDSVKGRFTISRDNAKNSLYLQMNSLRAEDTAVYYCNSGSNYFDYWGQGTLVTVSS VL: EIVMTQSPATLSVSPGERATLSCRARQNFYSNLAWYQQKPGQAPRLLIYGASTRATGIPARFSGSGSGTEFTLTISSLQSEDFAVYYCQQYNNWPLTFGGGTKVEIK
 |  |  |  |  |  | 0.12 | 39E5H1 (TIM-3 antibody purified from hybridoma, chimeric antibody of Example 2) (antibody, V domains shown, From hybridoma of Harbour H2L2 transgenic mice: human variable regions, rat constant regions) VH: EVQLVESGGGLVQPGGSLRLSCAASGFTFSSYWMSWVRQAPGKGLEWVANIKRGGSERYYVDSVKGRFTISGDNAKNSVYLQMNSLRAEDTAVYYCARGSNWFDPWGQGTLVTVSS VL: ETVMTQSPAILSVSPGERATLSCRASQSVYSNLAWYQQKLGQAPRLLIYDASTRATGIPARFSGSGSGTEFTLTISSLQSEDFAVYYCQQYNNWPITFGQGTRLEIK
